Reference: patent US11433139B2, “Peptide vaccines against interleukin-31” (Zoetis Services LLC, priority 2018, dated 2022)

Assays:
wildtype feline IL-31 = experiment: Indirect ELISA, binding to wildtype feline IL-31
How it was run: (§1)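 Wildtype or 15H05-epitope-mutant feline IL-31 coated directly onto plates as capture antigen (50 ng/well). Antibodies diluted in PBST, bound antibody detected with HRP-labelled secondary and TMB for 10 min at RT. Reaction stopped with 0.1 N HCl, then OD read at 450 nm.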

[1] = test system: feline IL-31 15H05 mutant; experiment: Indirect ELISA, binding to feline IL-31 15H05 mutant; conditions: compared with wildtype
feline IL-31 15H05 mutant, sequence (as listed by the source, change not shown): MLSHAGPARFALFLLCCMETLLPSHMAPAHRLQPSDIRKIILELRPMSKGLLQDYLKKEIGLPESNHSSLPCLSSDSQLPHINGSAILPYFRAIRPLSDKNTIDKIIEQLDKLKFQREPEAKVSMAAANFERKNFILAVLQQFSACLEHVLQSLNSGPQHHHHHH
How it was run: as §1

[2] = test system: feline IL-31 11E12 mutant; experiment: Indirect ELISA, binding to feline IL-31 11E12 mutant; conditions: compared with wildtype
feline IL-31 11E12 mutant, sequence (as listed by the source, change not shown): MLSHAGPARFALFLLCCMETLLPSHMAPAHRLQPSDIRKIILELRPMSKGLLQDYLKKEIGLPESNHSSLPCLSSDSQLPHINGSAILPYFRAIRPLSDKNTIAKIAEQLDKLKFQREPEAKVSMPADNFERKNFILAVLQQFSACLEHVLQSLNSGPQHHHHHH
Text: To determine the impact of mAbs 11E12 and 15H05 ability to bind these mutant forms of feline IL-31, an indirect ELISA was run using the mutants directly coated on to an immunoassay plate. […] The minor attenuation of mAb 15H05s binding to the 11E12 mutant is likely due to translational effects of the mutations from movement of the two front helices effecting the 15H05 binding site. The mutations designed to affect mAb 15H05s binding (mutant 15H05) show a complete loss of mAb 1505s ability to bind this IL-31 mutant by ELISA. Unlike the 11E12 mutant, the changes in the random coil recognized by mAb 15H05 (mutant 15H05) had no impact on mAb 11E12 binding further supporting the distinction between the two epitopes (FIG. 6C).

equine IL-31 = experiment: Biacore binding, single test concentration of antibody, equine IL-31 surface
equine IL-31, sequence (as listed by the source): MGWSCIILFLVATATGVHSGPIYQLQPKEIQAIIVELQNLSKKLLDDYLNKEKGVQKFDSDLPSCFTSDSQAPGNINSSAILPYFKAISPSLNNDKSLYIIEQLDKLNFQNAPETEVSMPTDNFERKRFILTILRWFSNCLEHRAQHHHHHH
Experimental: (§2) For the indirect ELISA, binding (ELISA OD) to wildtype feline IL-31 and a feline IL-31 15H05 mutant which had mutations in the monoclonal antibody 15H05 epitope region was assessed. To confirm binding, biacore analysis was performed using canine, feline, equine, human, the feline 15H05 mutant, and feline 11E12 mutant IL-31 proteins as surfaces and a single test concentration of antibody. The feline IL-31 11E12 mutant had mutations in the monoclonal antibody 11E12 epitope region.
(§3) For the indirect ELISA method, antibody binding to wildtype and feline IL-31 15H05 mutant proteins was assessed. […] In comparison, the 11E12 antibody bound to the wild-type feline IL-31 and its binding was not impacted by the mutations in the 15H05 epitope region as evidenced by the data in FIG. 4. To confirm binding, biacore analysis was performed using canine, feline, equine, human, feline 15H05 mutant, and feline 11E12 mutant IL-31 proteins as surfaces and a single test concentration of antibody. Similar to ELISA observations, all antibodies tested bound to wildtype feline IL-31. In agreement with the data described above in this section, mouse antibodies 11 E12 and 15H05 both bound to canine and feline IL-31 surfaces. […] From this group of nine fully canine antibodies, only ZIL1 and ZIL9 cross-reacted with equine IL-31. Of note, antibody 15H05 was the only one of all assayed herein that bound to canine, feline, and equine IL-31 indicating some level of epitope conservation across the three species. In contrast, none of the antibodies described herein bound to human IL-31. Additional biacore surfaces were used to verify ELISA observations showing differential binding of antibodies to wildtype feline IL-31 and two proteins with mutations in the 15H05 (15H05 mutant) or 11 E12 (11E12 mutant) epitopes. […] Differing results can be attributed to differences in the two assay methodologies.

[3] = test system: feline 11E12 mutant IL-31; experiment: Biacore binding, single test concentration of antibody, feline 11E12 mutant IL-31 surface
Experimental: as §2, §3

wildtype feline IL-31, sequence (as listed by the source): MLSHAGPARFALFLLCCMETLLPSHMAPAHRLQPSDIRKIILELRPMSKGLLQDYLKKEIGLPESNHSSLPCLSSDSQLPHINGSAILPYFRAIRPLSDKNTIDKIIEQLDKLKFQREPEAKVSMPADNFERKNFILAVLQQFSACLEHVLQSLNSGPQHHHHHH

B1: 15H05: mouse anti IL-31 monoclonal antibody, VH SEQ ID NO: 67, VL SEQ ID NO: 69 (antibody, listed as Mus musculus, V domains shown)
VH: QVQLQQSAAELARPGASVKMSCKTSGYTFTSYTIHWIKQRPGQGLEWIGNINPTSGYTENNQRFKDKTTLTVDRSSNTAYLQLHSLTSEDSAVYFCARWGFKYDGEWSFDVWGAGTTVTVSS
VL: DIQMNQSPSSLSASLGDTITVTCRASQGISIWLSWYQQKPGNIPKVLINKASNLHIGVPPRFSGSGSGTHFTLTITSLQPEDIATYYCLQSQTYPLTFGGGTKLEIN
Wildtype feline IL-31
  binding to wildtype feline IL-31 (ELISA): capable of binding
[1]
  binding to feline IL-31 15H05 mutant (ELISA): complete loss
[2]
  binding to feline IL-31 11E12 mutant (ELISA): partially attenuated
Equine IL-31
  binding to equine IL-31 (Biacore): bound
[3]
  binding to feline 11E12 mutant IL-31 (Biacore): retained binding
